Molecular target: T1, FMC63 CAR-Flag (construct #140)
T1 construct: also called CAR19; CD19 CAR construct
Test: flow cytometry on 293T cells transfected with construct #140; anti-mouse Fc gamma-PE detection
Description: Cells transfected with construct #140 (SEQ ID NO: 317) (2.5×10\hat{ }5 in 50 ul) were incubated with 50 u1 sup or purified (5 ug/ml as final conc.) protein of constructs#151/#152 (SEQ ID NO: 319/ SEQ ID NO: 320) for 30 min at 4° C., spun and washed twice with FACS buffer. This was followed by another incubation with anti-mouse Fc gamma-PE for 30 min at 4° C. Cells were spun and washed as above, and fixed with 1% PFA in PBS. Fixed cells were analyzed on Accuri 6 for CAR expression binding (PE positive).

T1 sequence (chain, as listed by the source): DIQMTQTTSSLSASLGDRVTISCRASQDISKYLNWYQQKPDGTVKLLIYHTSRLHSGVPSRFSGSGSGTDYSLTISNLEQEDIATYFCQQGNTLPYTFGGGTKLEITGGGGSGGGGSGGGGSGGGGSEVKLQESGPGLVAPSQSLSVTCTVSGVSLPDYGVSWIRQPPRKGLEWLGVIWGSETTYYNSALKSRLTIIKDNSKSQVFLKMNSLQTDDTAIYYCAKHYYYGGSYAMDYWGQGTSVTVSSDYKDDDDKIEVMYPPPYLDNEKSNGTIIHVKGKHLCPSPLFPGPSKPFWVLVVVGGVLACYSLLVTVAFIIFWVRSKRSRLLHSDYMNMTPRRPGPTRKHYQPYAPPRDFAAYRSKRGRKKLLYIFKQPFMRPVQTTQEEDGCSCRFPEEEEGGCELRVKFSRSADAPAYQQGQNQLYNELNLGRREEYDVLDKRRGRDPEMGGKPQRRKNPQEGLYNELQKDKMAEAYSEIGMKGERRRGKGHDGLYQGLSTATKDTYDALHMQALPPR

B1: anti-FMC63 antibody, 136.20.1 (antibody, mouse IgG2a, kappa, V domains shown)
VH: EVKLVESGGGLVQPGGSLKLSCAASGFDFSRYWMSWVRQAPGKGLEWIGEINLDSSTINYTPSLKDKFIISRDNAKNTLYLQMSKVRSEDTALYYCARRYDAMDYWGQGTSVTVSS
VL: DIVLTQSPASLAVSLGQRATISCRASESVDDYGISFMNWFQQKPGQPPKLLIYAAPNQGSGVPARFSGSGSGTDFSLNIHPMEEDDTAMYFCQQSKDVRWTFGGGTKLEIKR
notes: also called anti-FMC63 (anti-Id) antibody; constructs #151/#152
B1: binds.

— patent US20200306375A1 (ALETA BIOTHERAPEUTICS, published 2020)
